The supplement of paper PMC11246515
± gives the standard deviation of the averaged measurements.

Assay: total protein half-life in vivo (active degradation + dilution); higher = more stable protein
[1] = E. coli NCM3722 delta-clpP delta-lon delta-hslV, growth: N-lim chemostat, doubling time 6 h
[2] = E. coli NCM3722 delta-clpP, growth: N-lim chemostat, doubling time 6 h
[3] = E. coli NCM3722 delta-lon, growth: N-lim chemostat, doubling time 6 h
[4] = E. coli NCM3722 delta-smpB, growth: N-lim chemostat, doubling time 6 h
[5] = wild type E. coli NCM3722, growth: C-lim chemostat, doubling time 3 h
[6] = wild type E. coli NCM3722, growth: C-lim chemostat, doubling time 6 h
[7] = wild type E. coli NCM3722, growth: C-lim chemostat, doubling time 12 h
[8] = wild type E. coli NCM3722, growth: N-lim chemostat, doubling time 6 h
[9] = wild type E. coli NCM3722, growth: N-lim chemostat, doubling time 12 h
[10] = wild type E. coli NCM3722, growth: P-lim chemostat, doubling time 6 h
[11] = wild type E. coli NCM3722, growth: P-lim chemostat, doubling time 12 h
[12] = E. coli NCM3722 delta-hslV, growth: N-lim chemostat, doubling time 6 h

Sequence | total protein half-life in vivo [1] | total protein half-life in vivo [2] | total protein half-life in vivo [3] | total protein half-life in vivo [4] | total protein half-life in vivo [5] | total protein half-life in vivo [6] | total protein half-life in vivo [7] | total protein half-life in vivo [8] | total protein half-life in vivo [9] | total protein half-life in vivo [10] | total protein half-life in vivo [11] | total protein half-life in vivo [12]
MITVALIDDHLIVRSGFAQLLGLEPDLQVVAEFGSGREALAGLPGRGVQVCICDISMPDISGLELLSQLPKGMATIMLSVHDSPALVEQALNAGARGFLSKRCSPDELIAAVHTVATGGCYLTPDIAIKLASGRQDPLTKRERQVAEKLAQGMAVKEIAAELGLSPKTVHVHRANLMEKLGVSNDVELARRMFDGW [P0AGA6] | 5.29 ± 0.12 h | 4.19 ± 0.075 h | 4.25 ± 1.2 h | 3.84 ± 0.34 h | 2.7 ± 0.14 h | 4.26 ± 1.2 h | 8.86 ± 0.39 h | 4.01 ± 0.17 h | 6.351 ± 0.022 h | 4.35 ± 0.56 h | 7.3 ± 0.44 h | 
MKLKTTLFGNVYQFKDVKEVLAKANELRSGDVLAGVAAASSQERVAAKQVLSEMTVADIRNNPVIAYEDDCVTRLIQDDVNETAYNQIKNWSISELREYVLSDETSVDDIAFTRKGLTSEVVAAVAKICSNADLIYGAKKMPVIKKANTTIGIPGTFSARLQPNDTRDDVQSIAAQIYEGLSFGVGDAVIGVNPVTDDVENLSRVLDTIYGVIDKFNIPTQGCVLAHVTTQIEAIRRGAPGGLIFQSICGSEKGLKEFGVELAMLDEARAVGAEFNRIAGENCLYFETGQGSALSAGANFGADQVTMEARNYGLARHYDPFIVNTVVGFIGPEYLYNDRQIIRAGLEDHFMGKLSGISMGCDCCYTNHADADQNLNENLMILLATAGCNYIMGMPLGDDIMLNYQTTAFHDTATVRQLLNLRPSPEFERWLESMGIMANGRLTKRAGDPSLFF [P0AEJ6] | 5.95 ± 1.3 h | 5.45 ± 0.56 h | 4.68 ± 0.12 h | 3.91 ± 0.24 h | 3.36 ± 0.3 h | 6.26 ± 0.2 h | 11.1 ± 0.83 h | 3.82 ± 0.15 h | 6.18 ± 0.099 h | 6.37 ± 0.16 h | 12 ± 0.84 h | 4.07 ± 0.41 h
MSFSCPLCHQPLSREKNSYICPQRHQFDMAKEGYVNLLPVQHKRSRDPGDSAEMMQARRAFLDAGHYQPLRDAIVAQLRERLDDKATAVLDIGCGEGYYTHAFADALPEITTFGLDVSKVAIKAAAKRYPQVTFCVASSHRLPFSDTSMDAIIRIYAPCKAEELARVVKPGGWVITATPGPRHLMELKGLIYNEVHLHAPHAEQLEGFTLQQSAELCYPMRLRGDEAVALLQMTPFAWRAKPEVWQTLAAKEVFDCQTDFNIHLWQRSY | 6.07 ± 0.81 h | 4.95 ± 0.29 h | 4.9 ± 0.089 h | 4.28 ± 0.53 h | 2.57 h | 5.6 h | 10.8 ± 0.77 h | 5.34 ± 0.44 h | 9.24 ± 0.73 h | 5.78 ± 0.22 h | 13.5 ± 2.7 h | 4.97 h
MTQTLLAIENLSVGFRHQQTVRTVVNDVSLQIEAGETLALVGESGSGKSVTALSILRLLPSPPVEYLSGDIRFHGESLLHASDQTLRGVRGNKIAMIFQEPMVSLNPLHTLEKQLYEVLSLHRGMRREAARGEILNCLDRVGIRQAAKRLTDYPHQLSGGERQRVMIAMALLTRPELLIADEPTTALDVSVQAQILQLLRELQGELNMGMLFITHNLSIVRKLAHRVAVMQNGRCVEQNYAATLFASPTHPYTQKLLNSEPSGDPVPLPEPASTLLDVEQLQVAFPIRKGILKRIVDHNVVVKNISFTLRAGETLGLVGESGSGKSTTGLALLRLINSQGSIIFDGQPLQNLNRRQLLPIRHRIQVVFQDPNSSLNPRLNVLQIIEEGLRVHQPTLSAAQREQQVIAVMHEVGLDPETRHRYPAEFSGGQRQRIAIARALILKPSLIILDEPTSSLDKTVQAQILTLLKSLQQKHQLAYLFISHDLHVVRALCHQVIILRQGEVVEQGPCARVFATPQQEYTRQLLALS |  | 5.76 ± 0.31 h | 4.55 ± 0.74 h | 5.67 ± 0.15 h | 3 ± 0.32 h | 5.64 ± 0.14 h | 13.1 ± 0.73 h | 5.87 ± 0.26 h | 11.6 h | 6.17 ± 0.13 h | 11.9 ± 0.82 h | 6.42 ± 0.031 h
MNSLRPELLELTPQALTALSNAGFVKRSLKELENGNVPEISHENDALIATFSDGVRTQLANGQALKEAQCSCGANGMCRHRVMLVLSYQRLCATTQSTEKEEEWDPAIWLEELATLPDATRKRAQALVAKGITIELFCAPGEIPSARLPMSDVRFYSRSSIRFARCDCIEGTLCEHVVLAVQAFVEAKAQQAEFNHLIWQMRSEHVTSSDDPFASEEGNACRQYVQQLSQTLWLGGISQPLIHYEAAFNRALQAAETCNWRWVSESLRQLRASVDAFHARASHYNAGECLHQLAALNSRLNCAQEMARRDSIGEVPPVPWRTVVGSGIAGEAKLDHLRLVSLGMRCWQDIEHYGLRIWFTDPDTGSILHLSRSWPRSEQENSPAATRRLFSFQAGALAGGQIVSQAAKRSADGELLLATRNRLSSVVPLSPDAWQMLSAPLRQPGIVALREYLRQRPPACIRPLNQVDNLFILPVAECISLGWDSSRQTLDAQVISGEGEDNVLTLSLPASASAPYAVERMAALLQQTDDPVCLVSGFVSFVEGQLTLEPRVMMTKTRAWALDAETTPVAPLPSASVLPVPSTAHQLLIRCQALLIQLLHNGWRYQEQSAIGQA | 3.47 h |  |  |  |  |  |  |  |  |  |  | 
MNPQLLRVTNRIIERSRETRSAYLARIEQAKTSTVHRSQLACGNLAHGFAACQPEDKASLKSMLRNNIAIITSYNDMLSAHQPYEHYPEIIRKALHEANAVGQVAGGVPAMCDGVTQGQDGMELSLLSREVIAMSAAVGLSHNMFDGALFLGVCDKIVPGLTMAALSFGHLPAVFVPSGPMASGLPNKEKVRIRQLYAEGKVDRMALLESEAASYHAPGTCTFYGTANTNQMVVEFMGMQLPGSSFVHPDSPLRDALTAAAARQVTRMTGNGNEWMPIGKMIDEKVVVNGIVALLATGGSTNHTMHLVAMARAAGIQINWDDFSDLSDVVPLMARLYPNGPADINHFQAAGGVPVLVRELLKAGLLHEDVNTVAGFGLSRYTLEPWLNNGELDWREGAEKSLDSNVIASFEQPFSHHGGTKVLSGNLGRAVMKTSAVPVENQVIEAPAVVFESQHDVMPAFEAGLLDRDCVVVVRHQGPKANGMPELHKLMPPLGVLLDRCFKIALVTDGRLSGASGKVPSAIHVTPEAYDGGLLAKVRDGDIIRVNGQTGELTLLVDEAELAAREPHIPDLSASRVGTGRELFSALREKLSGAEQGATCITF [P0ADF6] | 3.58 ± 0.62 h | 3.24 h | 3.46 h | 2.97 ± 0.12 h | 3.07 ± 0.33 h |  | 8.61 h | 2.98 ± 0.2 h | 4.531 ± 0.012 h | 5.33 ± 0.3 h | 9.86 ± 0.35 h | 3.51 ± 0.99 h
